Measured values taken from paper PMC4513882.
Like-named read-outs stand apart in the source and are kept apart here.

What was measured:
SAMHD1 wt [1] = molecular target: T1, SAMHD1 wt (human, UniProt Q9Y3Z3 1-626); assay: competition
SAMHD1 wt [2] = molecular target: T1, SAMHD1 wt; assay: competition; remark: listed apart in the source
SAMHD1 wt [3] = molecular target: T1, SAMHD1 wt; assay: fluorescence anisotropy
SAMHD1 ΔSAM (Δ112) = SAMHD1 ΔSAM (Δ112) (human, UniProt Q9Y3Z3 113-626, del1-112); assay: fluorescence anisotropy
Sequence of SAMHD1 ΔSAM (Δ112) (Q9Y3Z3 113-626, stated change not applied): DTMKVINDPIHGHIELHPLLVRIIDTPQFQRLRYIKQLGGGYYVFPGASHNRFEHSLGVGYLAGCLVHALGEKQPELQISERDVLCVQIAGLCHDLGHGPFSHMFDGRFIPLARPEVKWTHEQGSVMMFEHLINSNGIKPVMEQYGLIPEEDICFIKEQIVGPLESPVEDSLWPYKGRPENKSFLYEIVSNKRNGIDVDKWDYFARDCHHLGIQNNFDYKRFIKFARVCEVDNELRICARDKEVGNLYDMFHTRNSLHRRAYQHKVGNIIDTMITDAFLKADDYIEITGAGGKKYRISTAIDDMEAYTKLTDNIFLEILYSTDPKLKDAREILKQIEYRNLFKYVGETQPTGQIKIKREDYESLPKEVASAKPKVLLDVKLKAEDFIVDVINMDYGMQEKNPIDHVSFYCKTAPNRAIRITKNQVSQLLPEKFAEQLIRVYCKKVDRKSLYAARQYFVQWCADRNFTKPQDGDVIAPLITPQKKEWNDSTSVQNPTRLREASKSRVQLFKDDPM

SAMHD1 T592E = SAMHD1 T592E (human, UniProt Q9Y3Z3 1-626, T592E); assay: fluorescence anisotropy
Sequence of SAMHD1 T592E (Q9Y3Z3 whole entry T592E): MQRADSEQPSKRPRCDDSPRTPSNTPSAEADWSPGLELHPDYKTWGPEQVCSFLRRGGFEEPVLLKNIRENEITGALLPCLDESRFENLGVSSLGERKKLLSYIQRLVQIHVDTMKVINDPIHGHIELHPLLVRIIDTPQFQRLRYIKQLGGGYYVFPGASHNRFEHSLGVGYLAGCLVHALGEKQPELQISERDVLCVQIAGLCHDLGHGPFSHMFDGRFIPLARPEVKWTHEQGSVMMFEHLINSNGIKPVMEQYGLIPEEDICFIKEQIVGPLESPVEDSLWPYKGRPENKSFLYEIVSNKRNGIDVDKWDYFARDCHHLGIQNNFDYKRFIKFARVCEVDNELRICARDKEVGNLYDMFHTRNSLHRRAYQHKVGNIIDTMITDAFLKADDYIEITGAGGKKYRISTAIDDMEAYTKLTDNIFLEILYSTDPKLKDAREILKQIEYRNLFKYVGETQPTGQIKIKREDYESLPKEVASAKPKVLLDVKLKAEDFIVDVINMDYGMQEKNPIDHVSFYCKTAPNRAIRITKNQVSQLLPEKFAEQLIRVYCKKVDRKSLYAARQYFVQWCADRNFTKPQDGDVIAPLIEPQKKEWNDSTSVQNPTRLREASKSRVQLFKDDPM

SAMHD1 Q548A = SAMHD1 Q548A (human, UniProt Q9Y3Z3 1-626, Q548A); assay: fluorescence anisotropy
Sequence of SAMHD1 Q548A (Q9Y3Z3 whole entry Q548A): as the sequence (Q9Y3Z3 whole entry T592E) above, with Q548A, E592T counted along it

SAMHD1 R451E = SAMHD1 R451E (human, UniProt Q9Y3Z3 1-626, R451E); assay: fluorescence anisotropy
Sequence of SAMHD1 R451E (Q9Y3Z3 whole entry R451E): as the sequence (Q9Y3Z3 whole entry T592E) above, with R451E, E592T counted along it

SAMHD1 wt [4] = molecular target: T1, SAMHD1 wt; assay: fluorescence anisotropy; remark: listed apart in the source

T1 sequence (Q9Y3Z3 whole entry): as the sequence (Q9Y3Z3 whole entry T592E) above, with E592T counted along it

B1: ssDNA90 (ssDNA)
DNA: TGGAGAATCCCGGTGCCGAGGCCGCTCAATTGGTCGTAGACAGCTCTAGCACCGCTTGAAGGAGATATACATACATTAATTGCGTTGCGC
Does B1 bind (SAMHD1 wt [1])?
Result: binds

B2: ssRNA90 (ssRNA)
RNA: GGGGAAUUGUGAGCGGAUAACAAUUCCCCUCUAGAAAUAAUUUUGUUUAACUUUAAGAAGGAGAUAUACAUAUGCACCAUCAUCAUCAUC
Does B2 bind (SAMHD1 wt [2])?
Result: binds

B3: RNA:DNA40 (DNA:RNA)
RNA: CACCAAUUCGUCUUAGGGUUAAUCUUGAAGCUAGAGUUAA
DNA: TTAACTCTAGCTTCAAGATTAACCCTAAGACGAATTGGTG
Which “apparent K (half saturation)” value (SAMHD1 wt [3]) does the source give for B3 here?
Its value is 2000 ± 400 nM.

Does CACCAAUUCGUCUUAGGGUUAAUCUUGAAGCUAGAGUUAA (ssRNA) [ssRNA40] bind (SAMHD1 ΔSAM (Δ112))?
Result: binds

Does CACCAAUUCGUCUUAGGGUUAAUCUUGAAGCUAGAGUUAA (ssRNA) [ssRNA40] bind (SAMHD1 T592E)?
Result: binds

Does CACCAAUUCGUCUUAGGGUUAAUCUUGAAGCUAGAGUUAA (ssRNA) [ssRNA40] bind (SAMHD1 Q548A)?
Result: binds

Does CACCAAUUCGUCUUAGGGUUAAUCUUGAAGCUAGAGUUAA (ssRNA) [ssRNA40] bind (SAMHD1 R451E)?
Result: binds

B4: ssDNA57 (ssDNA)
DNA: TGGAGAATCCCGGTGCCGAGGCCGCTCAATTGGTCGTAGACAGCTCTAGCACCGCTT
Does B4 bind (SAMHD1 T592E)?
Result: binds

Does B4 bind (SAMHD1 Q548A)?
Result: binds

And the “apparent K (half saturation)” value (SAMHD1 wt [3])?
The value was 450 ± 130 nM.

B5: dsDNA57 (dsDNA)
DNA 1: TGGAGAATCCCGGTGCCGAGGCCGCTCAATTGGTCGTAGACAGCTCTAGCACCGCTT
DNA 2: AAGCGGTGCTAGAGCTGTCTACGACCAATTGAGCGGCCTCGGCACCGGGATTCTCCA
Which “apparent K (half saturation)” value (SAMHD1 wt [4]) does the source give for B5 here?
The value was 18 ± 2 µM.
